In the data set the target is SMAD3 (UniProt P84022 P84022:1-425). As to the kind of experiment: EMSA; 5 mM MgCl2, 200 mM NaCl, pH 7.6, poly(dI-dC), room temperature; band diminished by unlabeled competitor; probe described as upstream of the predicted site …. To be noted: tags: full length, Santa Cruz Biotechnology; label: 5'-Cy5. The protocol:
Electrophoretic Mobility Shift Assay (EMSA): Cultured A549 cells at 60-70% confluence were treated with 2 ng/mL recombinant human TGFβ₁ (R&D Systems) for 60 minutes. Nuclear proteins were isolated using a standard rapid micropreparation technique described at Andrews N. C. and Faller D. V. Nucleic acids research (1991); 19:2499). The supernatant was reserved and snap frozen in liquid nitrogen as the nuclear protein fraction. Nuclear extracts and recombinant full length SMAD3 protein (Santa Cruz Biotechnology, Santa Cruz, Calif.) were incubated with 5′-end Cyanine-5 labeled probe and/or non-labeled competitor oligonucleotide for 20 minutes at room temperature in a binding buffer consisting of 20% glycerol, 5 mM MgCl₂, 2.5 mM EDTA, 25 mM DTT, 200 mM NaCl, 50 mM Tris HCl pH 7.6, and 0.25 mg/mL poly(dI-dC). The complementary oligonucleotides (5′-[…]-3′ (SEQ ID NO: 3), 5′-[…]-3′ (SEQ ID NO: 4)) were synthesized by Integrated DNA Technologies (Coralville, Iowa), and consisted of a sequence upstream of the predicted SMAD3/let7d binding site (GGCTGAGTA (SEQ ID NO:5)). […] The protein/DNA complexes were run on a 6% native polyacrylamide gel and visualized on a Typhoon imaging and documentation system using Cyanine-5 dye excitation and fluorescence settings.

Sequence of SMAD3 (P84022 whole entry, one chain of several): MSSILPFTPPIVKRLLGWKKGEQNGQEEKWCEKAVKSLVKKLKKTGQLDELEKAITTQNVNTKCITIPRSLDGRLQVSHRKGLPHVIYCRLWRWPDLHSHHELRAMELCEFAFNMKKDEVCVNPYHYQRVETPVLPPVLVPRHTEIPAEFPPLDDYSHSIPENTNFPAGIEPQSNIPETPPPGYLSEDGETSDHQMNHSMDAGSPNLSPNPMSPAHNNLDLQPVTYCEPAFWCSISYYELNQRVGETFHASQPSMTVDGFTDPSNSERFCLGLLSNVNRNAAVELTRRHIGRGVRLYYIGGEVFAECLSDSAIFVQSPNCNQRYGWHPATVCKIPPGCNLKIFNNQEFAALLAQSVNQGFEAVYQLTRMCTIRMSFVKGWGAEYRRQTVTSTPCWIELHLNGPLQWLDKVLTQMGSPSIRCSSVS

B1: let-7d promoter EMSA probe (dsDNA)
DNA 1: GATAATTAAATGTTAAAAGTCAGC
DNA 2: GCTGACTTTTAACATTTAATTATC
As to B1, the binding result is “binds”.

These data come from US20120045395, “MicroRNAs In Idiopathic Pulmonary Fibrosis” (UNIVERSITY OF PITTSBURGH - OF THE COMMONWEALTH SYSTEM OF …, published 2012).
